Data on three molecules can be found in patent publication US20250263489A1 (TEIJIN PHARMA, published 2025).

For assay [1], the target named is IGF-1 receptor on the cells of the PathHunter IGF1R Functional Assay (DiscoverX) (UniProt P08069 31-1367). The assay can be described thus: cell-based or functional assay.
The target in assay [2] is T1, rabbit IGF-1 receptor expressed on HEK293T cells (rabbit). The assay can be described thus: cell-based ELISA on fixed HEK293T cells expressing the IGF-1R, antibody at 5 nM, anti-human IgG HRP, absorbance 450 nm minus 650 nm. The procedure:
(§1) HEK293T cells were transfected by lipofection method with pEF1 expression vectors (Thermo Fisher) incorporated with the IGF-1 receptor genes of rabbit (SEQ ID NO: 76), guinea pig (SEQ ID NO: 78), rat (SEQ ID NO: 80) and mouse SEQ ID NO: 82). The transfected HEK293T cells were allowed to grow overnight or longer after the lipofection, and were then added to a 96-well plate (poly-D-lysine coated) at 4×10⁴ cells/well. The cells were then fixed in 10% buffered formalin (Mildform® 10NM, Wako) and blocked with phosphate buffer containing 3% BSA before used for ELISA.
(§2) ELISA was carried out as follows. 100 μL of each humanized antibody solution prepared at 5 nM in 1% BSA/1% FBS/PBS was added to each well, and reacted at 37° C. for about 1 hour. Anti-human IgG antibody HRP conjugate solution prepared at each concentration in 1% BSA/1% FBS/PBS was added to each well at 100 μL, reacted at 37° C. for about 1 hour, and washed three times with washing solution. […] After about 30 minutes, 100 μL of 1M sulfuric acid was added to each well, the absorbances at 450 and 650 nm were measured, and the difference between the absorbances at 450 nm and at 650 nm was calculated. The calculated difference was compared with the difference between the absorbances at 450 nm and at 650 nm for HEK293T cells without IGF-1 receptor gene (Mock) to analyze the binding activity.

For assay [3], the target named is T2, guinea pig IGF-1 receptor expressed on HEK293T cells (guinea pig, UniProt P08069 31-1367 (human entry)). The description is as above. As for the experimental part: as §1, §2
T2 sequence (P08069 other isoform, or with tags, fused parts or gaps limits assumed): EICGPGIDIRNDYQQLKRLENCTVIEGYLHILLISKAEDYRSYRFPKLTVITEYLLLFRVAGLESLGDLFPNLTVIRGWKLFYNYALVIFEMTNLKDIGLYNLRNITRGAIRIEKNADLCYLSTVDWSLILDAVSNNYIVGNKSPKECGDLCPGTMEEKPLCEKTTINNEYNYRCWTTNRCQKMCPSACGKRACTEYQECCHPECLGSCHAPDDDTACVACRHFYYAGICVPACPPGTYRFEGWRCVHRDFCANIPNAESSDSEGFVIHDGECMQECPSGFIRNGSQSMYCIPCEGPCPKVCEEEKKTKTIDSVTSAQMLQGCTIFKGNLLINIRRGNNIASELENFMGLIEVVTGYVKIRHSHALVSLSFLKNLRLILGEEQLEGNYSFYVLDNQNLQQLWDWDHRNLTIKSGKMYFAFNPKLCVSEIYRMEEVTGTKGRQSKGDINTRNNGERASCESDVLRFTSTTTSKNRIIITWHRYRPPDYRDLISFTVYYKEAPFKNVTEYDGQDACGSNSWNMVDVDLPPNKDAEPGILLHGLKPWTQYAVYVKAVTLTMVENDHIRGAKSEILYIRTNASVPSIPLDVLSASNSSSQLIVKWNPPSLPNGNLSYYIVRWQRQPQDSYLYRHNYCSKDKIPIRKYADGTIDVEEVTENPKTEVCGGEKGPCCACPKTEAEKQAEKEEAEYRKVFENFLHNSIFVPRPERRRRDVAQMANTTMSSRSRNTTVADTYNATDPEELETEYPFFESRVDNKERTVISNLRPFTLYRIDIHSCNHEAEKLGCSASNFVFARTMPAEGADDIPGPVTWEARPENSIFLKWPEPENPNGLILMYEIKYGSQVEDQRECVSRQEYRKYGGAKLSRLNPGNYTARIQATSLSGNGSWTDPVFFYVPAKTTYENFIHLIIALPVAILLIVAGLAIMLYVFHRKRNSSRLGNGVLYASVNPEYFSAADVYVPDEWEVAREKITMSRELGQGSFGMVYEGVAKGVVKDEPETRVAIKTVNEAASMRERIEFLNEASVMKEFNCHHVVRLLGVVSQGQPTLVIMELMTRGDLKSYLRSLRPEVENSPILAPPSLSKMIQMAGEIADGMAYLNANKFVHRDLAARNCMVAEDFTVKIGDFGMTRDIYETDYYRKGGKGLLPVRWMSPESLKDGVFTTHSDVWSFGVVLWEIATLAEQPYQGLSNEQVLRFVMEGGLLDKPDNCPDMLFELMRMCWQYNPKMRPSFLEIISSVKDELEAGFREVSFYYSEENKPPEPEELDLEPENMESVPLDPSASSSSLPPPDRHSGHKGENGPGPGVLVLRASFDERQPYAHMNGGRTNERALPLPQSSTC
The target of assay [4] is rat IGF-1 receptor expressed on HEK293T cells (rat, UniProt P24062 31-1370). The experiment in a line: cell-based ELISA on fixed HEK293T cells expressing the receptor, compared with Mock cells. As for the experimental part: as §1
Sequence of rat IGF-1 receptor expressed on HEK293T cells (P24062 other isoform, or with tags, fused parts or gaps limits assumed): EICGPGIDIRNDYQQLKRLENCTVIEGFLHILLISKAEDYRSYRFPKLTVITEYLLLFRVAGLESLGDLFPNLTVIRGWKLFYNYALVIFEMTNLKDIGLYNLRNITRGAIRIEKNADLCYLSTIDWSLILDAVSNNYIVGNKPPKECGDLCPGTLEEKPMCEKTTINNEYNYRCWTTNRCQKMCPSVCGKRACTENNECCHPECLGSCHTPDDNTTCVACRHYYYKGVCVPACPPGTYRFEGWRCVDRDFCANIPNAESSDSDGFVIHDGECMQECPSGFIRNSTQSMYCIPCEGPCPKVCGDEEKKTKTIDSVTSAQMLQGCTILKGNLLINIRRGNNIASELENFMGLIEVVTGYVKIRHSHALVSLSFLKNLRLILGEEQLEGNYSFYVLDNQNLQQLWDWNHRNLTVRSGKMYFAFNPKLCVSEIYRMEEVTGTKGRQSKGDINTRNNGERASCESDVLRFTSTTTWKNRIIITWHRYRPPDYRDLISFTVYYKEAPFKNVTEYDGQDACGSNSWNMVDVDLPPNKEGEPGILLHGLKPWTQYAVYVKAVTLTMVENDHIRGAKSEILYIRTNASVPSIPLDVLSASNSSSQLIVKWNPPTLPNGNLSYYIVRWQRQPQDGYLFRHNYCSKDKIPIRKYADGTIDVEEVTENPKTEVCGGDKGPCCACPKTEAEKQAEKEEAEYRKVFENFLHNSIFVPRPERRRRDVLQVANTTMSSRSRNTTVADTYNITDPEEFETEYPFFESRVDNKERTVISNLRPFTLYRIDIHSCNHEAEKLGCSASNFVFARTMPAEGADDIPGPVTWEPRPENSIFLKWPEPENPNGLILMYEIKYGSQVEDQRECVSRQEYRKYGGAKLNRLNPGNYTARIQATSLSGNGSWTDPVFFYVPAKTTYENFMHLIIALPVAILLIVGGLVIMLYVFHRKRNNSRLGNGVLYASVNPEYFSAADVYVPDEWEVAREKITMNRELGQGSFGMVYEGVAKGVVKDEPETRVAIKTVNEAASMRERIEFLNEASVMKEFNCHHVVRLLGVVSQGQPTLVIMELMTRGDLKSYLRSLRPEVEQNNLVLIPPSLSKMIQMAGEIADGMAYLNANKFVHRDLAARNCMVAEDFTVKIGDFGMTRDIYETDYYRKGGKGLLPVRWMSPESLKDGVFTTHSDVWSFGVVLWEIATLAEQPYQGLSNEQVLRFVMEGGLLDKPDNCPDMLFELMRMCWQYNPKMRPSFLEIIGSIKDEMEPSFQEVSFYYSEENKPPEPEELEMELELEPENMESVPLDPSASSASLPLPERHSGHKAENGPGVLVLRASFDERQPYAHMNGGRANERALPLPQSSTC
(§3) ELISA was carried out as follows. 100 μL of each humanized antibody solution prepared at 5 nM in 1% BSA/1% FBS/PBS was added to each well, and reacted at 37° C. for about 1 hour. Anti-human IgG antibody HRP conjugate solution prepared at each concentration in 1% BSA/1% FBS/PBS was added to each well at 100 μL, reacted at 37° C. for about 1 hour, and washed three times with washing solution. The reaction was initiated by adding 100 μL of substrate (TMB) to each well. After about 30 minutes, 100 μL of 1M sulfuric acid was added to each well, the absorbances at 450 and 650 nm were measured, and the difference between the absorbances at 450 nm and at 650 nm was calculated. The calculated difference was compared with the difference between the absorbances at 450 nm and at 650 nm for HEK293T cells without IGF-1 receptor gene (Mock) to analyze the binding activity.
For orientation: ELISA stands for enzyme-linked immunosorbent assay.

Assay [5] has as its target mouse IGF-1 receptor expressed on HEK293T cells (mouse, UniProt Q60751 31-1373). The assay is described as above. As for the experimental part: as §1, §3
For assay [6], the target named is T1, rabbit IGF-1 receptor expressed on …. The experiment in a line: cell-based ELISA on fixed HEK293T cells expressing the receptor, antibody at 5 nM.
Assay [7] addresses T2, guinea pig IGF-1 receptor expressed on …. The description is as above.
Assay [8] deals with crab-eating macaque IGF-1 receptor expressed on HEK293T cells (crab-eating macaque). The assay is described as above.
In assay [9] the target is T3, human IGF-1 receptor expressed on HEK293T cells (human, UniProt P08069 31-1367).
T3 construct: Cells fixed in formalin before the ELISA; also called human IGF-1 receptor-expressing cells
The description is as above.

T1 sequence (chain, as listed by the source limits assumed): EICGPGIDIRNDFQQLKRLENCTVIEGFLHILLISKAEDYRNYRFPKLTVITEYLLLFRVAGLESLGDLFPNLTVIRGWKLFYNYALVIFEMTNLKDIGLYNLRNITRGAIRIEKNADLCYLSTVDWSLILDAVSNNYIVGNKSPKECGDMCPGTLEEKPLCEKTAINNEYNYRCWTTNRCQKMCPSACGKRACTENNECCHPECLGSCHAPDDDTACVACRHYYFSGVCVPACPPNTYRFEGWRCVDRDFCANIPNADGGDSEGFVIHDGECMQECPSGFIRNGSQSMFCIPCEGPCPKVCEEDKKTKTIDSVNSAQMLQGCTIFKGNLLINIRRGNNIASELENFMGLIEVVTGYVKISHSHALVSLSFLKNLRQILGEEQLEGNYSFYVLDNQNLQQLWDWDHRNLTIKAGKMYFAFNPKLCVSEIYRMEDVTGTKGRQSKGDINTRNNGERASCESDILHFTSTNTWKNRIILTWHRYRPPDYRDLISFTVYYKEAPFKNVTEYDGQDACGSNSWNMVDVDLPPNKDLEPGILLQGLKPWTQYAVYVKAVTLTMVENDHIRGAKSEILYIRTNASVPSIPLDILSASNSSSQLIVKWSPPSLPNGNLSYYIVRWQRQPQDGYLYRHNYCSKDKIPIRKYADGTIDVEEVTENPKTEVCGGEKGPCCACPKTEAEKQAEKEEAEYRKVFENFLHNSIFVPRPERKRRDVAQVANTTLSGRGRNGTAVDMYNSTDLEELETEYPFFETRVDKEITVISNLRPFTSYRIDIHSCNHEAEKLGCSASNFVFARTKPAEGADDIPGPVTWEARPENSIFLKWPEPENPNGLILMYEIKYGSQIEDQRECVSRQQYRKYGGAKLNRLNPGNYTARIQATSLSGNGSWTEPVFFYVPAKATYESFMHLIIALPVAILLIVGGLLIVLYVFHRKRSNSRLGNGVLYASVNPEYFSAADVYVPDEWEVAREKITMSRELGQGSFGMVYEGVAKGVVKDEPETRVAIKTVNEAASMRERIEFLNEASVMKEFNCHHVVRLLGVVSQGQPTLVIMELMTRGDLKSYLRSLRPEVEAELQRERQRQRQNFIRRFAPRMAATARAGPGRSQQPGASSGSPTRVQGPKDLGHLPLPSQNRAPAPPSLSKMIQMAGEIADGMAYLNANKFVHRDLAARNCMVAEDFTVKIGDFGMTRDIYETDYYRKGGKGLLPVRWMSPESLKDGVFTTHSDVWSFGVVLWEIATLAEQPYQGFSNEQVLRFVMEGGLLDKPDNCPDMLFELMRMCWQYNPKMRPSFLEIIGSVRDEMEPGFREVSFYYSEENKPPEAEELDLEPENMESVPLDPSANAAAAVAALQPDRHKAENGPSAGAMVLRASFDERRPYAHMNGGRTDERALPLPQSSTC

B1: human chimeric IGF11-16 antibody (antibody, V domains shown)
VH: QIQLQQPGAELVKPGASVKLSCKAPGYTFTSYWMHWVKQRPGQGLEWIGETNPSNSVTNYNEKFKSKATLTVDKSSSTAYMQLSSLTSEDSAVYYCTIGRGRGFAYWGQGTLVTVSA
VL: DIQMNQSPSSLSASLGDTITITCRASQNINFWLSWCQQKPGNIPKLLIYKASNLHTGVPSRFSGSGSGTDFTLTISSLQPEDIATYYCLQGQSYPYTFGGGTKLEIK
notes: also called Chimera; human mouse chimeric antibody IGF11-16
For the molecule B1, in assay [1], the “Signal intensity (ratio to IGF11-16) at 16.7 nM, PathHunter” value is 1 ratio to human chimeric IGF11-16. In addition, the binding result in [2] and in assay [3] was “binds” in each case.

B2: humanized antibody hIGF13_PS (antibody, V domains shown)
VH: QVQLVQSGAEVKKPGASVKVSCKAPGYTFTSYWMHWVRQAPGQGLEWMGETNPSSSVTNYAQKFQGRVTLTVDTSTSTAYMELSSLRSEDTATYYCTIGRGRGFAYWGQGTLVTVSS
VL: DIQMTQSPSSLSASVGDRVTITCRASQNINFWLSWYQQKPGKVPKLLIYKASNLHTGVPSRFSGSGSGTDFTLTISSLQPEDVATYYCLQGQSYPYTFGGGTKLEIK
notes: also called VL23/VH13_PS
As for B2, the binding result in [4] and in assay [5] was “no binding (tested: 5 nM)” each time. In addition, the “binding activity, fold compared to Mock cells” value in assay [6], in [7], in assay [8] and in assay [9] was about 2 fold throughout.

B3: humanized antibody hIGF25_PS (antibody, V domains shown)
VH: QVQLVQSGAEVKKPGASVKVSCKAPGYTFTSYWMHWVRQAPGQGLEWMGETNPSSSVTNYAQKFQGRVTLTVDTSTSTAYMELSSLRSEDTAVYYCTIGRGRGFAYWGQGTLVTVSS
VL: DIQMTQSPSSLSASVGDRVTITCRASQNINFWLSWYQQKPGKVPKLLIYKASNLHTGVPSRFSGSGSGTDFTLTISSLQPEDVATYYCLQGQSYPYTFGGGTKLEIK
notes: also called VL23/VH25_PS
Regarding B3, the binding result in assay [4] and in [5] was “no binding (tested: 5 nM)” throughout. The “binding activity, fold compared to Mock cells” value in assay [6], in assay [7], in assay [8] and in [9] was about 2 fold throughout.
